T1: human FcγRIIa(R) (human, UniProt P12318 36-217)
T1 construct: also called FcgRIIaR; hFcgRIIa(R)
T1 chain: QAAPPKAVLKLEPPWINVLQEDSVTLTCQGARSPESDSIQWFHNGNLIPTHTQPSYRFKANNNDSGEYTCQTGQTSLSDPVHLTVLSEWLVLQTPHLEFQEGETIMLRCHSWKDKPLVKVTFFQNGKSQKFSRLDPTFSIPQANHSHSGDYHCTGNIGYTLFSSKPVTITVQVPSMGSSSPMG

T2: human FcγRIIa(H) (human, UniProt P12318 36-217)
T2 construct: also called FcgRIIaH; hFcgRIIa(H)
T2 sequence: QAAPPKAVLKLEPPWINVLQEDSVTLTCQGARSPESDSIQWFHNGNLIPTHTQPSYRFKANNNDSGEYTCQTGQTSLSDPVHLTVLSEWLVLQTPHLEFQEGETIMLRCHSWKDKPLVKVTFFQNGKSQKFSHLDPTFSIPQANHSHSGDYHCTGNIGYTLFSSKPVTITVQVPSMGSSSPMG

T3: human FcγRIIb (human, UniProt P31994 43-217, limits assumed)
T3 construct: also called FcgRIIb; hFcgRIIb
T3 sequence: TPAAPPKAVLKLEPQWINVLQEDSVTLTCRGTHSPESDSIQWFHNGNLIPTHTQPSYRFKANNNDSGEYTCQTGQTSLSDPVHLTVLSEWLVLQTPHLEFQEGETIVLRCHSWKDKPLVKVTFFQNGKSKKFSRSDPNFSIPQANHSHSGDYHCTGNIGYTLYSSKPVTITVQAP


Columns and labels:
Assay in all cases: SPR, captured antibody;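 note: antibody captured on a sensor chip, Fcγ receptor flowed over at 25 °C, receptor binding normalized to the captured antibody amount and expressed relative to the reference antibody ×100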
human FcγRIIa(R) = target: T1, human FcγRIIa(R)
Experimental: (§1) Interaction between each modified antibody and Fcγ receptor prepared in the manner described above was analyzed using the BIACORE™ T100 surface plasmon resonance system (GE Healthcare), BIACORE™ T200 surface plasmon resonance system (GE Healthcare), BIACORE™ A100 surface plasmon resonance system or BIACORE™ 4000 surface plasmon resonance system. HBS-EP+ (GE Healthcare) was used for the running buffer, and measurements were carried out at 25° C. The chips used were chips in which antigen peptides, Protein A (Thermo Scientific), Protein A/G (Thermo Scientific) or Protein L (ACTIGEN® protein (Alltech or BioVision) were immobilized on the Series S Sensor Chip CMS (GE Healthcare) or Series S Sensor Chip CM4 (GE Healthcare) by amine coupling, or chips in which preliminarily biotinylated antigen peptides were allowed to interact and then immobilized on the Series S Sensor Chip SA (certified) (GE Healthcare). The target antibodies were captured on these sensor chips, Fcγ receptor diluted with the running buffer was allowed to interact, followed by measurement of the amount of bound antibody. The amounts bound were compared between antibodies. However, since the amount of Fcγ receptor bound depends on the amount of captured antibody, the values used for comparison were first corrected by dividing the amount of Fcγ receptor bound by the captured amount of each antibody. Through reaction with 10 mM glycine-HCl at pH 1.5, the sensor chips were regenerated by washing off antibody captured on the sensor chips and used repeatedly.
(§2) Binding strength was evaluated according to the following method based on the results of analyzing the interaction with each FcγR. […] That value was then further multiplied by 100, and the resulting value was used as an indicator of relative binding activity to each FcγR.

human FcγRIIa(H) = target: T2, human FcγRIIa(H)
Experimental: as §1, §2

human FcγRIa = target: T4, human FcγRIa (human, UniProt P12314 16-292, limits assumed)
T4 construct: also called FcgRIa; hFcgRIa
Experimental: as §1, §2

human FcγRIIb = target: T3, human FcγRIIb
Experimental: as §1, §2

T4 sequence (P12314 16-292 limits assumed): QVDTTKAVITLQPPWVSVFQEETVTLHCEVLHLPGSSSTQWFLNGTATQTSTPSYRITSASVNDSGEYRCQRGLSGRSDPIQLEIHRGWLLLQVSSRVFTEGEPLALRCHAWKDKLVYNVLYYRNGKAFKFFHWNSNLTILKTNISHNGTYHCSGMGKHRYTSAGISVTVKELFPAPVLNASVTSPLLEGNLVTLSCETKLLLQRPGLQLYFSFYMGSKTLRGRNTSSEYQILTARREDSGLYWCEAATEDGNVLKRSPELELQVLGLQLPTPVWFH

Row | Binder | relative binding activity (human FcγRIIa(R)) | relative binding activity (human FcγRIIa(H)) | relative binding activity (human FcγRIa) | relative binding activity (human FcγRIIb)
1 | GpH7-B3 P329S/GpL16-k0 (antibody, human IgG1, B3 variant; copies: 2 + 2) heavy: not shown light: DIVMTQSPLSLPVTPGEPASISCQASESLVHSNRNTYLHWYLQKPGQSPQLLIYKVSNRFSGVPDRFSGSGSGTDFTLKISRVEAEDVGVYYCSQNTHVPPTFGQGTKVEIE | 0 % of GpH7-B3/GpL16-k0 | 1 % of GpH7-B3/GpL16-k0 | 60 % of GpH7-B3/GpL16-k0 | -1 % of GpH7-B3/GpL16-k0
2 | GpH7-B3 P329W/GpL16-k0 (antibody, human IgG1, B3 variant; copies: 2 + 2) heavy: not shown light: DIVMTQSPLSLPVTPGEPASISCQASESLVHSNRNTYLHWYLQKPGQSPQLLIYKVSNRFSGVPDRFSGSGSGTDFTLKISRVEAEDVGVYYCSQNTHVPPTFGQGTKVEIE | 1 % of GpH7-B3/GpL16-k0 | 0 % of GpH7-B3/GpL16-k0 | 94 % of GpH7-B3/GpL16-k0 | 0 % of GpH7-B3/GpL16-k0
3 | GpH7-B3 Q295D/GpL16-k0 (antibody, human IgG1, B3 variant; copies: 2 + 2) heavy: not shown light: DIVMTQSPLSLPVTPGEPASISCQASESLVHSNRNTYLHWYLQKPGQSPQLLIYKVSNRFSGVPDRFSGSGSGTDFTLKISRVEAEDVGVYYCSQNTHVPPTFGQGTKVEIE | 43 % of GpH7-B3/GpL16-k0 | 37 % of GpH7-B3/GpL16-k0 | 95 % of GpH7-B3/GpL16-k0 | 40 % of GpH7-B3/GpL16-k0
4 | GpH7-B3 Q295N/GpL16-k0 (antibody, human IgG1, B3 variant; copies: 2 + 2) heavy: not shown light: DIVMTQSPLSLPVTPGEPASISCQASESLVHSNRNTYLHWYLQKPGQSPQLLIYKVSNRFSGVPDRFSGSGSGTDFTLKISRVEAEDVGVYYCSQNTHVPPTFGQGTKVEIE | 56 % of GpH7-B3/GpL16-k0 | 74 % of GpH7-B3/GpL16-k0 | 99 % of GpH7-B3/GpL16-k0 | 41 % of GpH7-B3/GpL16-k0
5 | GpH7-B3 Q295F/GpL16-k0 (antibody, human IgG1, B3 variant; copies: 2 + 2) heavy: not shown light: DIVMTQSPLSLPVTPGEPASISCQASESLVHSNRNTYLHWYLQKPGQSPQLLIYKVSNRFSGVPDRFSGSGSGTDFTLKISRVEAEDVGVYYCSQNTHVPPTFGQGTKVEIE | 46 % of GpH7-B3/GpL16-k0 | 74 % of GpH7-B3/GpL16-k0 | 99 % of GpH7-B3/GpL16-k0 | 30 % of GpH7-B3/GpL16-k0
6 | GpH7-B3 Q295G/GpL16-k0 (antibody, human IgG1, B3 variant; copies: 2 + 2) heavy: not shown light: DIVMTQSPLSLPVTPGEPASISCQASESLVHSNRNTYLHWYLQKPGQSPQLLIYKVSNRFSGVPDRFSGSGSGTDFTLKISRVEAEDVGVYYCSQNTHVPPTFGQGTKVEIE | 36 % of GpH7-B3/GpL16-k0 | 41 % of GpH7-B3/GpL16-k0 | 89 % of GpH7-B3/GpL16-k0 | 28 % of GpH7-B3/GpL16-k0
7 | GpH7-B3 P329V/GpL16-k0 (antibody, human IgG1, B3 variant; copies: 2 + 2) heavy: not shown light: DIVMTQSPLSLPVTPGEPASISCQASESLVHSNRNTYLHWYLQKPGQSPQLLIYKVSNRFSGVPDRFSGSGSGTDFTLKISRVEAEDVGVYYCSQNTHVPPTFGQGTKVEIE | 24 % of GpH7-B3/GpL16-k0 | 28 % of GpH7-B3/GpL16-k0 | 95 % of GpH7-B3/GpL16-k0 | 13 % of GpH7-B3/GpL16-k0

The next lines start with the values.

Row | relative binding activity (human FcγRIIa(R)) | relative binding activity (human FcγRIIa(H)) | relative binding activity (human FcγRIa) | relative binding activity (human FcγRIIb) | Binder
8 | 61 % of GpH7-B3/GpL16-k0 | 94 % of GpH7-B3/GpL16-k0 | 100 % of GpH7-B3/GpL16-k0 | 46 % of GpH7-B3/GpL16-k0 | GpH7-B3 Q295R/GpL16-k0 (antibody, human IgG1, B3 variant; copies: 2 + 2) heavy: not shown light: DIVMTQSPLSLPVTPGEPASISCQASESLVHSNRNTYLHWYLQKPGQSPQLLIYKVSNRFSGVPDRFSGSGSGTDFTLKISRVEAEDVGVYYCSQNTHVPPTFGQGTKVEIE
9 | 75 % of GpH7-B3/GpL16-k0 | 97 % of GpH7-B3/GpL16-k0 | 94 % of GpH7-B3/GpL16-k0 | 64 % of GpH7-B3/GpL16-k0 | GpH7-B3 S324K/GpL16-k0 (antibody, human IgG1, B3 variant; copies: 2 + 2) heavy: not shown light: DIVMTQSPLSLPVTPGEPASISCQASESLVHSNRNTYLHWYLQKPGQSPQLLIYKVSNRFSGVPDRFSGSGSGTDFTLKISRVEAEDVGVYYCSQNTHVPPTFGQGTKVEIE
10 | 89 % of GpH7-B3/GpL16-k0 | 43 % of GpH7-B3/GpL16-k0 | 100 % of GpH7-B3/GpL16-k0 | 68 % of GpH7-B3/GpL16-k0 | GpH7-B3 S298G/GpL16-k0 (antibody, human IgG1, B3 variant; copies: 2 + 2) heavy: not shown light: DIVMTQSPLSLPVTPGEPASISCQASESLVHSNRNTYLHWYLQKPGQSPQLLIYKVSNRFSGVPDRFSGSGSGTDFTLKISRVEAEDVGVYYCSQNTHVPPTFGQGTKVEIE
11 | 38 % of GpH7-B3/GpL16-k0 | 70 % of GpH7-B3/GpL16-k0 | 95 % of GpH7-B3/GpL16-k0 | 24 % of GpH7-B3/GpL16-k0 | GpH7-B3 Q295Y/GpL16-k0 (antibody, human IgG1, B3 variant; copies: 2 + 2) heavy: not shown light: DIVMTQSPLSLPVTPGEPASISCQASESLVHSNRNTYLHWYLQKPGQSPQLLIYKVSNRFSGVPDRFSGSGSGTDFTLKISRVEAEDVGVYYCSQNTHVPPTFGQGTKVEIE

From patent publication US20200199241A1 (Chugai, published 2020)
